The target of experiment [1] is T1, wild-type human Claudin 5 protein (human, UniProt O00501 1-218).
T1 construct: also called hCLDN5; CLDN 5
T1 sequence: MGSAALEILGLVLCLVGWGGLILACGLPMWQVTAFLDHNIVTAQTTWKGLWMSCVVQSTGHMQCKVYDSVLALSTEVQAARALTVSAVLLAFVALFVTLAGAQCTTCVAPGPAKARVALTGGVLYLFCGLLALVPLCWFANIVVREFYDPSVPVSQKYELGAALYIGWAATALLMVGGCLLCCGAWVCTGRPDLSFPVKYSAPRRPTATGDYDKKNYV
In words: FACS on human Claudin 5-expressing HT-1080 cells; 50% saturation of the MFI binding curve. Here is the method: (§1) The cells were washed three times with 0.2% BSA-TBS, and then mixed with 100 μL of a secondary antibody solution (FITC conjugated goat anti-mouse IgG+IgM in 1% BSA-PBS (1:400)), followed by a reaction at 4° C. for 1 hour. The cells were washed with 0.2% BSA-TBS, and FACS analysis (FACS caliber, BD Bioscience) was performed.

Experiment [2] deals with T2, wild-type rat Claudin 5 protein (rat, UniProt Q9JKD6 1-218).
T2 sequence: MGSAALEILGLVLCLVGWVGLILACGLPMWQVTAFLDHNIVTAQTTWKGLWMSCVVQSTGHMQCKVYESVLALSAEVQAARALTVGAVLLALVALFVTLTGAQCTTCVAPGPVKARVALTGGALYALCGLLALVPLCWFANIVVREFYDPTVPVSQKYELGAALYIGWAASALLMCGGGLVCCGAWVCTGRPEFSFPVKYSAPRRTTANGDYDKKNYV
The experiment is described as follows: FACS on Claudin 5-expressing cells (species comparison). Here is the method: as §1
FIG. 5 illustrates histograms with the horizontal axis representing the fluorescence signal, and the vertical axis representing the cell count. FIG. 6 illustrates a comparison of the amino acid. sequences of Claudin 5 protein of different species.

Experiment [3] has as its target T3, wild-type mouse Claudin 5 protein (mouse, UniProt O54942 1-218).
T3 construct: also called mCLDN5
T3 sequence: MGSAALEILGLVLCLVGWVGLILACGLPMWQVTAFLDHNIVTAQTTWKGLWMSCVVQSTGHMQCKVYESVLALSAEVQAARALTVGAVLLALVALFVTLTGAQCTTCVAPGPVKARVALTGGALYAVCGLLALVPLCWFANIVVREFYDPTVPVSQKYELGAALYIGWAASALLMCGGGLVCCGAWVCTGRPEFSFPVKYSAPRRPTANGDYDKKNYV
The experiment is described as follows: FACS on Claudin-expressing cells. Here is the method: as §1

The target of experiment [4] is T4, wild-type mouse Claudin 2 protein (mouse, UniProt O88552 1-230).
T4 construct: Expressed on cells by retrovirus; Wording leaves open whether the entry is the protein or the DNA; also called mCLDN2
T4 sequence: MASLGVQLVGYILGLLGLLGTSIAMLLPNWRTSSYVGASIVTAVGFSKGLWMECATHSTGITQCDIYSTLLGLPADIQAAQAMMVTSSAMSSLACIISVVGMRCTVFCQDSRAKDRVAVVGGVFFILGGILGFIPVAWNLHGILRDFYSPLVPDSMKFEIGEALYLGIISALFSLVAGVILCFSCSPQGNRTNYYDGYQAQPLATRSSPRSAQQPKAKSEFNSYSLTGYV
In words: FACS on Claudin-expressing cells. Here is the method:
as §1

Experiment [5] addresses T5, wild-type mouse Claudin 1 protein (mouse, UniProt O88551 1-211).
T5 construct: Expressed on cells by retrovirus; Wording leaves open whether the entry is the protein or the DNA; also called mCLDN1
T5 sequence: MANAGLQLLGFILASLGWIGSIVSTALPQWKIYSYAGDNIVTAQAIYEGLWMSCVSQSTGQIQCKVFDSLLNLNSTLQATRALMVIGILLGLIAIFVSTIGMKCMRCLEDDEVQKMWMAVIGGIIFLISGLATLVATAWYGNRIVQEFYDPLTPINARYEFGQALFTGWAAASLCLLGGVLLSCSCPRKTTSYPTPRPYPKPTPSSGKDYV
The experiment is described as follows: FACS on Claudin-expressing cells. On the procedure:
as §1

B1: antibody 2B1 (antibody, IgG2a, V domains shown)
VH: QVQLQQPGAELVKPGASVKLSCKASGYTFTTFWIHWVKQRPGRGLEWIGRIAPYSGGTTYNEKFKSKATLTVDRPSTTAYMQLISLTSEDSAVYYCARWDFTYGSNLDYWGQGTTLTVSS
VL: DIVMTQSQKFMSTSVGDRVSIPCKASQNVRTAVAWYQQKPGQSPKALIYLASNRHTGVPDRFTGSGSGTDFTLTISNVQSEDLADYFCLGHWDYPYTFGGGTKLEIKR
notes: also called antibody B
B1 had a Kd in experiment [1] of 6.9 nM. For the same molecule, the binding result in experiment [2], in experiment [3], in experiment [4] and in experiment [5] was “no binding (tested: 10 µg/mL)” each time.

B2: antibody 2B12 (antibody, IgG2a, V domains shown)
VH: QVQLQQSGAELARPGASVKLSCKASGYTFTRFGMSWVKQRTGQGLEWIGEIYPGSGDTYYSENFKGKATLTADKSSGTAYMELRSLTSEDSAVYFCARWGIYYGNPYAMDYWGQGTSVTVSS
VL: DIVMTQAAPSVPVTPGESVSISCRSSKSLLHSNGNTYLYWFLQRPGQSPQLLIYRMSNLASGVPDRFSGSGSGTAFTLRISRVEAEDVGVYYCLQHLEYPFTFGSGTKLEIKR
notes: also called antibody A
The molecule B2 came in with a Kd in experiment [1] of 7.3 nM. The binding result in experiment [2], in experiment [3], in experiment [4] and in experiment [5] was “no binding (tested: 10 µg/mL)” in each case.

As usually defined, the Kd is the concentration at which binding is half-saturated. Higher therefore signals lower affinity.

For the origin of these results see US20200223915A1 (OSAKA UNIVERSITY, published 2020).
